Assay results published in patent US20180185504A1 (Regeneron, published 2018).

T1: hPRLR.mmh (soluble monomeric human PRLR) (human)
T1 construct: called soluble monomeric PRLR protein
T1 chain: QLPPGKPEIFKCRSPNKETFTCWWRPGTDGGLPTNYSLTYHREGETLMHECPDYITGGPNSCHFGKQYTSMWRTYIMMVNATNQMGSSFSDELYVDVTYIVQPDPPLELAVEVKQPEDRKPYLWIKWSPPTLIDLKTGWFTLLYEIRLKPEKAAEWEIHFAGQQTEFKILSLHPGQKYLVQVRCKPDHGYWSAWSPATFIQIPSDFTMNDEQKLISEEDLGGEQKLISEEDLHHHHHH

T2: hPRLR.mFc (soluble dimeric human PRLR) (human)
T2 construct: dimeric PRLR construct
T2 chain: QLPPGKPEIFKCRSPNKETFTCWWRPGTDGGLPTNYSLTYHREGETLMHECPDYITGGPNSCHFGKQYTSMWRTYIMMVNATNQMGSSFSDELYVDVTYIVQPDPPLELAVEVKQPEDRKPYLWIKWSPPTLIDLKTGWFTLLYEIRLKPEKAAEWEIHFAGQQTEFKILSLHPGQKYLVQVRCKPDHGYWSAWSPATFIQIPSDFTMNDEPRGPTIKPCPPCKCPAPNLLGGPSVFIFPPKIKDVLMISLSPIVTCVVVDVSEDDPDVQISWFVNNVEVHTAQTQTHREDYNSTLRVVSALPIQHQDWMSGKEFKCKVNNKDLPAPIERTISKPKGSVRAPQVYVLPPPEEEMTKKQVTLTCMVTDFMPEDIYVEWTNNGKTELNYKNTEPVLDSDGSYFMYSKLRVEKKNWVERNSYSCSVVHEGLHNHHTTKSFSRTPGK

T3: macaca fascicularis (mf) PRLR.mmh (soluble monomeric monkey PRLR) (Macaca fascicularis)
T3 construct: called soluble monomeric PRLR protein
T3 chain: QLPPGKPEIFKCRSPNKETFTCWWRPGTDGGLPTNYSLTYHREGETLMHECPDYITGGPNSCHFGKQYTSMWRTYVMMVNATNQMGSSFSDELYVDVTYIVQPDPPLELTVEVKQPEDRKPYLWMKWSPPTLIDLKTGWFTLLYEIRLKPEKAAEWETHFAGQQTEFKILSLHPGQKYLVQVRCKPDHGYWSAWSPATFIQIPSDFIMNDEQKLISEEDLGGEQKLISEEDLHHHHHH

B1: H1H6795P (antibody, human IgG1, V domains shown)
VH: QVQLVQSGAEVKKPGASVKVSCKASGYTFGTSGITWVRQAPGQGLEWMGWSSAYNGKTDYAQKFQDRVTMTTDTSTTTGYMEMRSLTSDDTAVYYCTTVVRRPFDFWGQGTLVTVSS
VL: DIQMTQSPSSLSASVGDRVTITCRASQDINNFLAWFQQKPGKAPKSLIYAASSLQSGVPSKFSGGGSGTDFALTISSLQPEDFATYYCQQYSSYPITFGQGTRLEIK
notes: Human IgG1 Fc (H1H)
B2: H1H6804P (antibody, human IgG1, V domains shown)
VH: QVTLKESGPVLVKPTQTLSLTCTVSGFSLSDAGMGVSWIRQPPGKALEWLAHIFSNDGKSYSTSLKSRLTISKDTSKRQVVLTMTNMDPVDTATYYCARIRTGTYSLYLDYWGQGTLVTVSS
VL: DIQMTQSPSSLSASVGDRVTITCRASQSINSYLNWYQQKPGKAPKLLLYFASSLQSGVPSRFSGSGSGTDFTLTISSLQPEDFASYYCQESYSTPWTFGQGTKVEIK
notes: Human IgG1 Fc (H1H)
B3: H1H6958N2 (antibody, human IgG1, V domains shown)
VH: QVQLVESGGGVVQPGRSLRLSCGASGFTFRNYGMQWVRQGPGKGLEWVTLISFDGNDKYYADSVKGRFTISRDNSKNTLFLQMNSLRTEDTAVYYCARGGDFDYWGQGTLVTVSS
VL: DIQMTQSPSSLSASVGDRVTITCRASQDIRKDLGWYQQKPGKAPKRLIYAASSLHSGVPSRFSGSGSGTEFTLTISSLQPEDFATYYCLQHNSYPMYTFGQGTKLEIK
notes: Tested with human IgG1 Fc (H1H); also called H2M6958N2
B4: H1H6793P (antibody, human IgG1, V domains shown)
VH: EVQLVESGGGLVQPGGSLRLSCAASGFSFSIYAMSWFRQAPGKGLEWVSAINGRGDGTHYADSVKGRFTISRDNSKTTLYLQMSSLRAEDTAVYYCAKPVMSTNGFDIWGQGTMVTVSS
VL: DIQMTQSPSTLSASVGDRVTITCRASQSISSWLAWYQLKPGKAPKLLIYKASNLESGVPSRFSGSGSGTEFTLTISSLQPDDFATYYCQQYNIYWTFGQGTKVEIK
notes: Human IgG1 Fc (H1H)
B5: H1H6801P (antibody, human IgG1, V domains shown)
VH: QVQLQQSGPGLVKPSQTLSLTCVISGDSVSSNTAWNWVRQSPSRGLEWLGRTYYRSKWYNDYAVSVKSRITINPDTSKNQFSLLMNSVTPEDTAVYYCARVVRGLNYFDYWGQGTLVTVSS
VL: DIVMTQSPDSLAVSLGERATINCKSSQSVLYNSNNKNYLAWYQQKPGQPPKLLIYWSSSRESGVPDRFSGSGSGTDFTLTISGLQAEDVAIYYCQQYSTIPYTFGQGTKLEIK
notes: Human IgG1 Fc (H1H)
B6: H1H6953N (antibody, human IgG1, V domains shown)
VH: EVQLLESGGGLVQPGGTLRLSCAASGFTFSAYAMSWVRQAPGKGLEWVSSINVRAGDTYYADSVKGRFTISRDNSKNTLFLLMNSLRAEDTAAYYCAKARYSSNWGFDFWGQGTLVTVSS
VL: DIVMTQSPDSLTVSLGARTTINCQSSQTILHSSNNHNYLAWYQQKPGLPPKLLIYWSSTRESGVPDRFSGSGSGTDFTLTISSLQAEDVAIYYCQQYSNTPYTFGQGTKLEIN
notes: Tested with human IgG1 Fc (H1H); also called H1M6953N
B7: H1H6803P (antibody, human IgG1, V domains shown)
VH: EVQLVESGGGVVRPGGSLRLSCAASGFKFDDYGMTWVRHVPGKGLEWVSGINWNGGRTGYTDSVKGRFTISRDNAKNSLYLQMNSLRAEDTALYHCAGARRDAFDIWGQGTMVTVSS
VL: DIQMTQSPSSLSASIGDRVTITCRASQNIIKYLNWYQQNAGKAPKLLIYTASSLQSGVPSRFSGSGSGTDFTLTISSLQPEDFATYYCQQSSSSPYTFGQGTKLEIK
notes: Human IgG1 Fc (H1H)
B8: H1H6807P (antibody, V domains shown)
VH: QVQLVESGGGVVQPGRSLRLSCAASGFTFSDYNMHWVRQAPGKGLEWVAVIWYDGSNKHYADSVKGRFTISRDNSKNTLYLQMNSLRAEDTAVYYCARDGFTIFGMVLDYWGQGTLVTVSS
VL: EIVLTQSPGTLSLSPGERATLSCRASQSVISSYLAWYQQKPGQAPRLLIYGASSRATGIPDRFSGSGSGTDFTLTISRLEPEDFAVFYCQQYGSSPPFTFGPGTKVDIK
notes: Human IgG1 Fc (H1H)
B9: H1H6792P (antibody, human IgG1, V domains shown)
VH: EVQLVESGGGLVQPGRSLRLSCAASGFTLDDHAVHWVRQAPGKGLEWVSGISWNSVYIDYADSVKGRFTIFRDNAKNSLYLQMNSLRAEDTAFYYCARDIEGARDYWGQGTLVTVSS
VL: DIQMTQSPSSLSASVGDRVTITCRASQGIRNDLGWYQQKPGKAPKRLIYAASSLQSGVPSRFSGSGYGTEFTLTISSLQPEDFAPYYCLQHNSYPLTFGGGTKVEIK
notes: Human IgG1 Fc (H1H)
B10: H1H6797P (antibody, human IgG1, V domains shown)
VH: EVQLVESGGGLVQPGGSLRLSCIVSGFTFSGSWMSWVRQLPGKGLEWVANIKEDGSDSYYVDSVEGRFTISRDNAKSSLYLQMNSLRVDDTAVYFCARARTVPLHYWGQGTLVTVSS
VL: DIQMTQSPSTLSASVGDRVTITCRASQSINIWLAWYQQKPGKAPKLLIYRASYLESGVPSSFAGGGSGTEFTLTISSLQPDDFGTYYCQHYNSYPFTFGQGTKLEIK
notes: Human IgG1 Fc (H1H)
B11: H1H6959N2 (antibody, human IgG1, V domains shown)
VH: EVQLVESGGGLVQPGRSLRLSCAASGFTFDDYAMHWVRQAPGKGLEWVSGISWHSGIIGYADSVKGRFTISRDNAKNSLYLQMNSLRTEDAALYYCAKIGSYFYFDSWGQGTLVTVSS
VL: EIVLTQSPGTLSLSPGERATLSCRASQSVSSNYLAWYQQKPGQAPRLLIYGASSRATGIPDRFSGSGSGTDFTLTISRLEPEDFAVYYCQQFGSSGYTFGQGTNLEIK
notes: Tested with human IgG1 Fc (H1H); also called H2M6959N2
B12: H1H6800P (antibody, human IgG1, V domains shown)
VH: EVQLVESGGGLVQPGRSLRLSCAASGFTFDGYAMHWVRQGPGKGLEWVSGISWYSDTLGYADSVKGRFTISRDNAKNSLYLQMNSLRTEDTAFYYCAKISSSGWAFDYWGQGTLVTVSS
VL: EIVLTQSPGTLSLSPGERATLSCRASHSVSSAYLAWYQQKPGQTPRLLIYGTSSRATGIPDRFSGSGSGTDFTLTISRLEPEDFAVYYCQQYGSSPLFTFGPGTKVDIK
notes: Human IgG1 Fc (H1H)

Tests used:
Test in all cases: SPR Biacore, 25 C, mAb capture
[1] = biological target: T1, hPRLR.mmh (soluble monomeric human PRLR)
Method: (§1) Measurements were conducted on a T200 Biacore instrument. Kinetic association (kₐ) and dissociation (kd) rate constants were determined by processing and fitting the data to a 1:1 binding model using Scrubber 2.0 curve fitting software.

[2] = biological target: T2, hPRLR.mFc (soluble dimeric human PRLR)
Method: as §1

[3] = biological target: T3, macaca fascicularis (mf) PRLR.mmh …
Method: as §1

Binder | Kd [1] [nM] | T½ [1] [min] | koff [1] [s⁻¹] | kon [1] [M⁻¹ s⁻¹] | Kd [2] [nM] | T½ [2] [min] | koff [2] [s⁻¹] | kon [2] [M⁻¹ s⁻¹] | Kd [3] [nM] | T½ [3] [min] | koff [3] [s⁻¹] | kon [3] [M⁻¹ s⁻¹]
B1 | 1.52 | 7 | 0.00177 | 1.17e+06 | 0.0545 | 137 | 8.41e-05 | 1.54e+06 | 2.33 | 6 | 0.00197 | 844000
B2 | 1.4 | 18 | 0.000634 | 453000 | 0.193 | 133 | 8.69e-05 | 451000 | 1.99 | 18 | 0.000657 | 331000
B3 | 1.17 | 42.5 | 0.000272 | 233000 | 0.0867 | 316 | 3.66e-05 | 422000 | 1.44 | 41.3 | 0.00028 | 195000
B4 | 1.41 | 35 | 0.000332 | 235000 | 0.331 | 153 | 7.57e-05 | 229000 | 2.22 | 29 | 0.000393 | 177000
B5 | 0.894 | 15 | 0.000756 | 846000 | 0.161 | 106 | 0.000109 | 675000 | 1.88 | 9 | 0.00123 | 657000
B6 | 0.268 | 54.5 | 0.000212 | 792000 | 0.067 | 242 | 4.77e-05 | 711000 | 0.438 | 36.3 | 0.000319 | 727000
B7 | 1.67 | 84 | 0.000137 | 82400 | 0.607 | 184 | 6.29e-05 | 104000 | 3.37 | 55 | 0.000209 | 62100
B8 | 0.189 | 80 | 0.000144 | 761000 | 0.0803 | 212 | 5.46e-05 | 680000 | 0.346 | 76 | 0.000151 | 437000
B9 | 2.45 | 15 | 0.000794 | 324000 | 0.313 | 122 | 9.48e-05 | 303000 | 4.17 | 12 | 0.000983 | 236000
B10 | 1.73 | 6 | 0.00196 | 1.13e+06 | 0.122 | 97 | 0.000119 | 982000 | 3.12 | 6 | 0.00209 | 670000
B11 | 202 | 0.3 | 0.036 | 179000 | 1.45 | 22.3 | 0.000518 | 359000 | 129 | 0.7 | 0.0167 | 129000
B12 | 0.972 | 28 | 0.000409 | 421000 | 0.184 | 133 | 8.69e-05 | 473000 | 1.25 | 30 | 0.00038 | 303000
